Test results as given in the supplement of paper PMC12636428.

Test system: Saccharomyces cerevisiae
Test: transcriptional activation domain activity (GFP:mCherry ratio, weighted mean of sorted bins, harmonized to initial dataset scale) (arbitrary fluorescence ratio units); higher = stronger transcriptional activation
Conditions: beta-estradiol 1 µM; induction time 4 h
How it was run: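 The activation activity of each tile is the read-weighted mean of bin median fluorescence, averaged across its barcodes and mapped linearly onto the scale of the initial dataset. Tiles were fused to an estradiol-inducible synthetic transcription factor, barcoded, and integrated at URA3 in yeast diploids carrying a GFP reporter. Induction used 1 uM beta-estradiol in SC for 4 hours at 30 °C, after which cells were sorted into 8 GFP:mCherry bins, and any tile with fewer than 50 reads was dropped.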

Sequence | transcriptional activation domain activity
IYVELYFILSSIWFSRIYYMFGFLFLCYGLMIMTCATVTILMVYFLLCAENYN | 58300
IYVIGCQPRFKTKLVEDKAEKRKCRIVLVPIFSETGVLVLLNIRTLEVRTVRF | 51700
IYVLHLFSTFPIFPLFPLFPIFLNFFIFLILILIFPIFPIFPIFPIFLIFPIF | 52900
IYYDPASRDKVYCSRAPIAYVYKRLVRMALESRFVQVAPVALKVLGIVLVMLY | 62500
KAAAAPKKKKAGVSDEEEKEEEEAESTPVDEDPKPKTKKLAAAKKPAAAAAAK | 33700
KAAAMKKVLAKPADKTKKTSSAKNDTKKAAAKAAATKPKARTTKTAKAAAATK | 7370
KAAAVVASDSDEPVEKPKPRRRNSTSSAKSGKSTKSNRSSRDKTAAGVAAGAG | 20700
KAAEKPAPAVSPSAPAAKAVHHNNNSNAKKQEQQQQQRAKSPAAASASAPAPA | 16600
KAAKRGRNARRKRKDKPKGQDHEDEKSKINDDELEYASPSNATVTNGPQTSPD | 14300
KAAPAPAASGDEGGEDEDEEDGDAVARRHQSKRSRRGIVVEESDEEDEGEPAA | 41100
KAAPAQDGAAAGERNGAEAAEAGEEEEEAEGEAAAEPGAEAAEKPAPKPAAAA | 42100
KAAPEDKEPEPVAVSYKVNDTVMAKWVSGDKGYYPARITSVTGSSTDPIYVVK | 19800
KAAVPKTKAAPKAKAVKAPKEKKAAAPKAKAAAKPKAAPKAKKAAAPKAAPAV | 29000
KADDEKPKKAARGAKAKKEEDEDEEADEEQEEPKKPARKPRAKAEPKKAPAKS | 23100
KADDGGGDEAEKPKKATSKKPKKENDDAMDVDEEAQERPKPKPRPKPKPKAKE | 22000
KADEDAQTGEKRKAEEPAADTNGEKSKDEEPASKKAKTDEEEKTAGKAKKPGR | 24000
KADEPAVEENGAKEDDSAKKQKTNGETETEKKGKGRGRPKKADGEKKAPAKKR | 21400
KAEAEAEAQPIAAAKTPRTRKAAAKPKAAAPSPTPAIPKTQAPTASAPAAPLP | 18300
KAEPKKEAAKGPRNVSGVTVDDKKEGKGKAAKKGDRVEMRYIGKLKSGKVFDS | 36900
KAETTAAKDAGAEPEAKPMRGGGREKKRDAEEAVKKEAVKEKPSKGSTKPASK | < 6570
KAFRLVHGILQRSHPRTLDRLFSSMLWLLHNGLTEVALLLRDYIRSLSIRLTS | 53000

Sequence | transcriptional activation domain activity
KAGCGYILGHINIFQPINWIFVVSAKVFPVDYVLFLLLVFFLFSASVVGVATV | 32300
KAGEAKTATSKGAGDEEEGTQKKKGTSSRKKATGTMGNGEVEIGNAGSSEKKK | 36200
KAGGTGAKQEKEPQGEGRETEGNQAKANRRTKGGTARGEGAAGGRRRRKGEES | 35000
KAGKKKYVESVNGRRREVLVIVGKDGKTKRKTRWLDPESAATETGVPWGLEVP | 28800
KAKAGADGDAAPKKKKAASKKDSNGSDAEDSDGEAKPKPKLKKKAAAAGKAKA | 29400
KALLLLLRIAHLQFNKIPLTLIFDQFLNVAILCDMYSKGNEKYLLISWVFHRE | 28800
KALVDAIITSHNIIIVHNQLIWFPNIVFLMSLIPLHIAAMNLWMALDMLFCFC | 52900
KAMGLLDSARIVSWHVSYSLVHLPSWISFAIIYKVRLFVKTNILILLVVHVLF | 41600
KANSKAKLSKKDESSDESESDSEDEKPAPKANGKQVCCAVPLAIFFIALLTKY | 57400
KAPTAPRKAGIAAKAGEKEAAAGAAAKVAEVTEAAARRGRGRPKKAQEELTAS | 50500
KAQDDKEADDSPKKKPAKRSRKKAAADDGDDDEEEAQPAKKKAKGGRKSKAAA | 39400
KARKRTRERKKEKEGRARTKGEGDRYEGRKFEISGTVEVKRERCEGTRRTKPK | 9070
KARPRQEGGQRQESGKKRKRDEDEGGDGQEGGEGGRKRRRKRKGAGGADDGVQ | 33400
KARQDKEPAMTQKDLATKINEKPSVINDYESGRAIPNQQVLGKLERALGVKLR | 40000
KARQEKQPPMTQKDLATKVNEKPSVINDYESGRAVPNQQVLSKLERALQVKLR | 22500
KASARKKRAPKKSDEGKRGEKEGNRSANGSNDEDDDRDSSSSSSSNDEATSRS | 11200
KASGSARESVDGEEDKEEAKEKNKENVKVEEKLDADEGEKESKVKAEAAKEPG | 20300
KASKSKKRKHHHHKSAVSSPEASDADTASQSSKRSKKSKRRHADADARAAANG | 36700
KASLGTGDAGKATTKSASAAVKSKAAAKSAKASDSKGGGEDEEEDGGAPKKKK | 18900
KATEYCLYFFGLGPALFKSLLPDKYWQHYCMLVHAVRILVQRRITQTQMLEAY | 49300
KATYHAMLHICRDIAKETLFFFHLVQEHPDDLPLVQSVLILLISCISRVVCTL | 55000

Sequence | transcriptional activation domain activity
KAVAALRRQTGQEAVEVEVAPIRQKRRETVGATVTTARPVAGSQTGPALTQVT | 14800
KAVFKALPILVVASVGCASTNLLIRTVIIWRKEHLVISVLLLLYVGHWTILFV | 32100
KCCVHVHQVYPYFFVEYFGKMRLRSGQLSALTFGAELQYTRVLIHVGVHFYGF | 47400
KCLRLAIHIPLYPLFRTALVLRVQPSNAPLIRSVKDFLIYYLHDLQRFFILSP | 70000
KCSKVEPWVINVAAVFPSVFLLGFVENFFWFRRMMLGKGCLRFGTVCWALLFI | 65800
KDATGDDAARARGGDKGGEREKAGGKGGRRGPKEKEKGKQKAKESKGAAGFAE | 55600
KDDEKKDRHRSRRDRGDRDKEDERRRRKRRSRSRSNHRHGHERRRDRSRSREG | 17100
KDDRDDRDRRGGDDRREDREERRGGEDRGEDRGGEGRRDSRQEGGANREPSPS | 23700
KDEEEREGEKRKEGKEESDTAVVKHRRRYRSRSKDRKRDGSRERRHRERSREG | 30600
KDESSSSRRRRGGRSEKEKRERTGDEGDSSSRHRSGRDREGDEEADDDERGSS | 37500
KDEVMKIKPVQKQTTAGQRTRFKAVVIVGDSNGHVGLGIKSAKEVATAIRAAI | 55100
KDEVMKIMPVQKQTRAGQRTRFKAFVVIGDSDGHVGLGVKCAKEVATAIRGAI | 61200
KDGKNEVIVDMQRVRERKREIVNSFRGGSEKRVADAGVTVLMGSASFVDSKTV | 34900
KDGKQRRTREAAGSGHARRRRRGDRERRKGQPRAGRPGAKAKGKAGGTGAKQE | 15700
KDHIGMKCVVAIVCLLDTMHQIFITHALYIYLIKGFANPLILTRLLWTFLIQL | 56400
KDKNKEKERGKHKHRRRERDGDGDGDEEDGRSSKKHKKERGQKRSEKEGGGED | 42100
KDLKDGTRAPGDESERIVVEELDMERVALDRTLGRLWRSWKKRIRSPTEPSFG | 34300
KDLNVVEGWEHQGVLRAAANTVKSVRMKESSTGGSQEKVYLKLVESTGHTLQG | 21200
KDNATTAAVAAASSEKDDEKKAKEENKPDDKKTEEKKAEEKKSDDTAKDDASK | 34300
KDPWHIKALVAFVWILDVAHTILISCFVYTLTIVYYGRAQELLKFICLYILIL | 45100
KDQIMYYIHLVIMISTIIQALVQHMIVVNTLPTYFCHPINVFSNFFWHVQFTL | 39300

Sequence | transcriptional activation domain activity
KDRKEKAEEKSGEEDRGKREDGAAEGEEREEVKRSAARKPKTVPAAASKKRPK | 34600
KDSDDESEDSDAKSKKRKKRKRVVESDEGSGSEAESKKRKKKRKAEDSDVSGS | 22600
KDYSVEAGIRFLQFIIHKCITVDIGVLCDIIDKVYGSLVIINCLRRYRNLHNL | 48500
KEAKSKSKAAHDNDAKRKTTATKPKRTSARNGKAPVKSKPKKGGGNAEPSAKK | 10300
KEDAGEAEAEGSGDKAEEAIAEKPKRGRKKAEPKEKAEPAAKPAVGRKKSVAE | 45700
KEDILLTLYENSTFGGLWSKLSDCLTVIRQRGNMLNIATILLPLIEALMVVCK | 54700
KEEAESEAEASAPKGKKGTVKKPAAAAKAKDVDEPKAKRGRPKKTVAKDEVEN | < 6570
KEEAGEEAEEASPAPSEQKEEAPPSGQKPQANTGKKKDQASPAKKTGATAAAK | 13700
KEEAPAEEQEKEEKKEKVPLSDARKGRARGPQRRAPAAAKAAAAAAAAPAPAV | 34400
KEEDEAPAPRKARGKAKKAIVEEEEAPESEVEAPEPKAKKGRGRKAAVKKVVS | < 6570
KEEEDRKRAEEEEERERERRRQDEVDRRRRMQDEAKQREAEAKKQAARAAALA | 35500
KEEEQKELDRMAREEKKVWGDALRLGRTSWSESVMVWSHVMALRVFVETVLRY | 62900
KEEEQKGEKEEDESEKETEKEEKKEEKKEKRKLMRRKPKAEELESEASEDERE | 21700
KEEESNELKSEQEPPSAVESIAAVMTPSDNGSRFYIKRRILIGNVSKYIAPER | 23100
KEEETKPEEAAATEATPEATTEPAAEGAEAPKEEAKTDAAAETKKEDRPKSPG | 20500
KEENKKDDLKEATKKGRKPRAAKEEAKEEAEGVKPKGRKRKATEEASDEIVVA | 23400
KEESGAKTPQSPASKSADDKNATREKEGAGSPDAAKGKGNEEVQTESGRDDRK | 28400
KEGMGWVDVLFSVCTSIILVQLVFVLGWWLLFLFLSMYHMLTFCIIIFILYKY | 53300
KEKAKAKAKERKREERRKEKEKRAKEKEREKKRLREKEKRRKEKEKEKRRKEK | 14900
KEKEDYALAIKLYADSIIITLRRLFKELDYIEIKSLIISSMFKVLLYNLLIYK | 66200
